According to patent US7993849B2:

Assays:
human MMP-1 (human) = human MMP-1 (human) (UniProt P03956)
rat MMP-13 (rat) = rat MMP-13 (rat) (UniProt P23097)

rat TIMP-1, sequence (P30120 24-217 limits assumed): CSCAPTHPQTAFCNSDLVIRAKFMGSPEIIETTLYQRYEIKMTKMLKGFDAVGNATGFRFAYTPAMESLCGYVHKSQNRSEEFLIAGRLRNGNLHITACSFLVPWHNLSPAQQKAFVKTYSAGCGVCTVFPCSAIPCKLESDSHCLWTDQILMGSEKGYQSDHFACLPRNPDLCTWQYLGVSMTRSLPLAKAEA

MMP-1 activity on fluorogenic peptide substrate (% MMP-1 activity) (human MMP-1 (human)) | MMP-13 activity on fluorogenic peptide substrate (% MMP-13 activity) (rat MMP-13 (rat)) | Substance
27 |  | human TIMP-1
 | 20 | rat TIMP-1
